B1: ZNF263 (parent)
chain: LLRHQRIHTGERPYKCPECGKSFS

Variants of: B1
Test: protein stability index of a GFP-peptide fusion (GPS, HEK-293T) (PSI 1-6); higher = more stable
Conditions: c terminus: a fixed tail appended
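Further: lentivirally expressed fusions sorted by FACS into six bins by GFP to DsRed ratio, PSI derived from sequencing read proportions per bin multiplied by bin number.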

Protein stability index of substitutions, site by site:
C16: P 3.06; G 3.9; W 3.15; V 2.16; D 3.46; A 3.17; H 3.04; Q 3.2; R 3.74; S 2.73; M 2.36; F 2.48; K 3.44; T 3.4; E 3.33; N 2.76; L 2.38; Y 2.12; I 2.77
R3: W 2.3; D 3.77; E 2.9; C 2.98; H 2.56; S 2.81; Q 2.34; T 3.27; P 2.76; A 3.21; I 2.25; L 1.63; G 2.68; M 2.04; F 1.58; V 2.3; Y 1.62; N 2.28; K 2.48
L1: V 3.03; W 2.95; Y 3.07; K 3.58; R 4.23; N 2.85; S 2.26; Q 4.46; T 2.9; M 1.65; P 2.83
G10: E 3.06; N 3.12; H 2.61; F 2.07; Q 2.86; I 2.29; W 1.69; A 2.36; V 2.43; K 2.24; D 2.56; S 2.64; L 2.3; T 3.22; C 2.49; M 2.23; Y 2.17; R 2.46; P 2.15
I7: V 2.27; D 3.06; K 2.14; L 1.94; Q 2.31; N 2.1; C 2.48; G 2.48; E 2.64; T 2.41; A 2.39; M 2.66; P 2.56; H 2.68; S 1.91; W 2.17; R 2.55; F 2.79; Y 1.77
K15: T 1.97; E 2.66; H 2.29; G 2.62; V 2.4; C 2.16; P 1.74; R 2; N 2.19; L 1.98; F 2.41; S 2.48; W 2.03; D 2.74; Q 2.46; Y 2.17; I 2.46; M 2.15; A 2.52
L2: M 3.08; T 2.71; C 4.89; I 1.78; Y 1.82; F 3.31; E 3.61; Q 2.57; P 2.63; D 3.39; V 4.05; S 3.11; A 1.96; W 1.86; N 3.27; H 3.11; G 2.76
T9: K 2.41; A 1.85; W 1.49; I 2.53; L 3.29; G 3.33; E 2.62; C 2.19; D 2.73; P 2.45; M 2.21; R 2.14; H 2.21; S 1.88; Y 2.56; F 2.06; N 2.07; V 2.34; Q 3.1
H8: L 1.85; F 2.04; T 2; E 2.52; C 2.03; M 2.24; Y 1.59; I 1.8; V 2.48; N 2.88; S 2.61; R 1.37; G 2.39; Q 2.52; W 1.73; P 3.3; A 1.86; D 2.53; K 2.44
P17: G 2.88; M 1.83; D 2.19; N 2.39; F 1.94; H 1.8; C 2; V 2.05; A 1.83; Q 2.78; W 1.74; I 2.6; E 2.26; S 1.66; Y 1.39; K 2.15; T 2.38; L 1.91; R 2.6
Y14: H 2.13; L 2.48; W 2.35; N 2.39; A 2.74; G 2.34; T 2.25; F 2.64; Q 2.11; C 3.63; V 2.38; K 1.59; S 1.95; I 2.23; D 2.24; E 2.85; M 2.42; R 1.94; P 2.09
E11: C 1.96; F 1.56; M 1.99; D 2.34; I 1.78; R 3.3; Y 1.88; L 1.99; P 2.39; K 2.04; A 2.26; T 2.51; V 2.56; H 2.7; G 2.63; Q 2.51; S 2.34; N 2.32; W 2.01
E18: C 1.86; M 2.46; Y 3.02; R 2.41; H 2.5; W 3.24; I 2.42; Q 2.41; A 2.25; V 2.15; F 2.48; P 2.37; D 1.96; N 2.24; K 2.64; L 2.24; G 2.3; T 2.25; S 2.25
H4: S 2.23; R 3.38; W 1.77; K 2.2; T 1.69; G 2.99; N 2.24; F 1.92; M 1.73; C 3.89; Q 2.56; V 3.58; D 2.58; I 1.96; E 2.81; L 2.15; A 2.18; P 2.25; Y 2.12
C19: A 3.18; F 2.12; D 3.28; E 3.31
P13: R 1.72; V 2.54; C 2.16; S 2.02; H 1.64; I 1.87; G 2.36; Q 3.02; E 2.48; W 2.83; Y 1.89; D 2.11; K 1.78; N 2.69; L 2.73; A 3.1; T 2.56; F 2.01; M 2.5
Q5: R 2.09; M 2.21; N 2.29; P 2.3; C 1.95; G 1.87; H 2.74; S 2.36; I 2.13; D 2.23; L 2.4; T 2.82; E 3.06; V 1.74; W 1.66; K 2.28; A 2.63
R12: T 2.45; K 2.43; Y 2.6; C 2.48; G 3.4; M 2.08; Q 2.67; A 2.11; I 2.64; S 2.11; D 1.93; P 2.52; L 2.69; V 2.91; H 2.67; E 2.71; W 1.7; F 2.65; N 1.59
R6: W 2.06; V 2.78; L 2.41; A 2.68; T 2.85; M 2.08; D 2.78; Q 2.53; S 2.51; P 2.56; H 3.73; G 2.08; N 2.59; F 1.41; C 5; K 2.81; E 2.74; Y 1.91; I 2.22

Reference: the supplement of paper PMC10567573
